Assays:
[1] = target: the molecule itself; assay: negative-stain electron microscopy
[2] = target: RABV SAD-B19 large polymerase protein (L), 6xHis-tagged (rabies virus (RABV) SAD-B19, UniProt P16289 1-2127); assay: negative-stain electron microscopy
Sequence of RABV SAD-B19 large polymerase protein (L), 6xHis-tagged (P16289 whole entry): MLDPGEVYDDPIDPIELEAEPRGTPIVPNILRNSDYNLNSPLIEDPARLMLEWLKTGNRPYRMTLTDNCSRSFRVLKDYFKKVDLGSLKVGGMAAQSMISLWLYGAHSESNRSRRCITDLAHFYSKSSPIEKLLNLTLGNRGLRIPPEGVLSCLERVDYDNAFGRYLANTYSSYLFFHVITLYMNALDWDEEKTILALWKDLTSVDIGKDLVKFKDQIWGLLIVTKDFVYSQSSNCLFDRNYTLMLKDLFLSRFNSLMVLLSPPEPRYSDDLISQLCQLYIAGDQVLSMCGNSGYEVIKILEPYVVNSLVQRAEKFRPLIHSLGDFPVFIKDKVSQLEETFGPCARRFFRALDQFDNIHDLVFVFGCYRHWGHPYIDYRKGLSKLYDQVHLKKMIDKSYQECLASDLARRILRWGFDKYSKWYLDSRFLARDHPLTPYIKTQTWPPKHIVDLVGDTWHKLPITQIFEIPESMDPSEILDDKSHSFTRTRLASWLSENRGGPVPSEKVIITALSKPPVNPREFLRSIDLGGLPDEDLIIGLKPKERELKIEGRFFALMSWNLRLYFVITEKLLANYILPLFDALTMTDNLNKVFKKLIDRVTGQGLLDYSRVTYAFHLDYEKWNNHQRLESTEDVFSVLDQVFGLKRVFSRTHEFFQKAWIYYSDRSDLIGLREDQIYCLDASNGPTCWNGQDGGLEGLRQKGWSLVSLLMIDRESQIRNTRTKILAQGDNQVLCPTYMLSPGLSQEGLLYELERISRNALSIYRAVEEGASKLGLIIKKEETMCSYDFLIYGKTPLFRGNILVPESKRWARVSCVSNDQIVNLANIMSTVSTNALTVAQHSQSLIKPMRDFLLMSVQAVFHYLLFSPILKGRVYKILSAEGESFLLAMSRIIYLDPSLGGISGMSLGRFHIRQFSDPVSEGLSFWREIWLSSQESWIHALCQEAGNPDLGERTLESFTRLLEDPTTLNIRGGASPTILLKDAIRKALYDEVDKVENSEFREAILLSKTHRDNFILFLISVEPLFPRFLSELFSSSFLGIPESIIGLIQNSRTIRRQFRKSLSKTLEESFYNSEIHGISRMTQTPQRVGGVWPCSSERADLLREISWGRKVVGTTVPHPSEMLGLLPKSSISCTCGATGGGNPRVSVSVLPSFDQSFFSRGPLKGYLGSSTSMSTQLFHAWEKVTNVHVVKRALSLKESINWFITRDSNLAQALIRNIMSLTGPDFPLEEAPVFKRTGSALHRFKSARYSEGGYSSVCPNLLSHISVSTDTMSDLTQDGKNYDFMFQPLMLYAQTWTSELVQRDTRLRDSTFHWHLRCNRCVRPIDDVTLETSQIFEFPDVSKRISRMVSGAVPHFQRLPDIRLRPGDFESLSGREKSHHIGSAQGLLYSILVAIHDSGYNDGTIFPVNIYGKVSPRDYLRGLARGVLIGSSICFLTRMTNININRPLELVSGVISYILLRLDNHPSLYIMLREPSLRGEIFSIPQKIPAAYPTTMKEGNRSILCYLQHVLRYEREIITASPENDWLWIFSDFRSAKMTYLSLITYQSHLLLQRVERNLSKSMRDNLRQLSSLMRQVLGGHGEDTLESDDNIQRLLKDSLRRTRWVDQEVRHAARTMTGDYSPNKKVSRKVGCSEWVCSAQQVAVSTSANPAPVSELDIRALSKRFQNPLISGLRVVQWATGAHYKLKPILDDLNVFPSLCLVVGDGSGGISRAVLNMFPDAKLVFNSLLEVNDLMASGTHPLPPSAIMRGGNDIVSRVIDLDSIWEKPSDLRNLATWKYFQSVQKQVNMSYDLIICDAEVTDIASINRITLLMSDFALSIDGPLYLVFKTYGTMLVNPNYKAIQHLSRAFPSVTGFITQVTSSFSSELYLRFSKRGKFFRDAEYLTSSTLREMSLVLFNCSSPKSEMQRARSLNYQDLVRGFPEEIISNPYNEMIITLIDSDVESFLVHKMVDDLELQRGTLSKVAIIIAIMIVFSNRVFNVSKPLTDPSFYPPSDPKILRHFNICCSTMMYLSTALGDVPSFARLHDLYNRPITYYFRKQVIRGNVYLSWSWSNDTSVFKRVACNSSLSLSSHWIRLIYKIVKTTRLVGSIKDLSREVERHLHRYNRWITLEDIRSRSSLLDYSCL

B1: RABV SAD-B19 full-length P (PFL) with C-terminal StrepII tag (natural protein)
chain: MSKIFVNPSAIRAGLADLEMAEETVDLINRNIEDNQAHLQGEPIEVDNLPEDMGRLHLDDGKSPNHGEIAKVGEGKYREDFQMDEGEDPSFLFQSYLENVGVQIVRQMRSGERFLKIWSQTVEEIISYVAVNFPNPPGKSSEDKSTQTTGRELKKETTPTPSQRESQSSKARMAAQIASGPPALEWSATNEEDDLSVEAEIAHQIAESFSKKYKFPSRSSGILLYNFEQLKMNLDDIVKEAKNVPGVTRLAHDGSKLPLRCVLGWVALANSKKFQLLVESDKLSKIMQDDLNRYTSC
- stoichiometry N [1]: 2
- binding result [2]: binds
